Reference: patent publication US20100136005A1 (Genentech, published 2010)

What was measured:
[1] = target: T1, rhesus CD11a (rhesus, UniProt H9Z8N3 26-1169); test: cell-based or functional assay
T1 sequence: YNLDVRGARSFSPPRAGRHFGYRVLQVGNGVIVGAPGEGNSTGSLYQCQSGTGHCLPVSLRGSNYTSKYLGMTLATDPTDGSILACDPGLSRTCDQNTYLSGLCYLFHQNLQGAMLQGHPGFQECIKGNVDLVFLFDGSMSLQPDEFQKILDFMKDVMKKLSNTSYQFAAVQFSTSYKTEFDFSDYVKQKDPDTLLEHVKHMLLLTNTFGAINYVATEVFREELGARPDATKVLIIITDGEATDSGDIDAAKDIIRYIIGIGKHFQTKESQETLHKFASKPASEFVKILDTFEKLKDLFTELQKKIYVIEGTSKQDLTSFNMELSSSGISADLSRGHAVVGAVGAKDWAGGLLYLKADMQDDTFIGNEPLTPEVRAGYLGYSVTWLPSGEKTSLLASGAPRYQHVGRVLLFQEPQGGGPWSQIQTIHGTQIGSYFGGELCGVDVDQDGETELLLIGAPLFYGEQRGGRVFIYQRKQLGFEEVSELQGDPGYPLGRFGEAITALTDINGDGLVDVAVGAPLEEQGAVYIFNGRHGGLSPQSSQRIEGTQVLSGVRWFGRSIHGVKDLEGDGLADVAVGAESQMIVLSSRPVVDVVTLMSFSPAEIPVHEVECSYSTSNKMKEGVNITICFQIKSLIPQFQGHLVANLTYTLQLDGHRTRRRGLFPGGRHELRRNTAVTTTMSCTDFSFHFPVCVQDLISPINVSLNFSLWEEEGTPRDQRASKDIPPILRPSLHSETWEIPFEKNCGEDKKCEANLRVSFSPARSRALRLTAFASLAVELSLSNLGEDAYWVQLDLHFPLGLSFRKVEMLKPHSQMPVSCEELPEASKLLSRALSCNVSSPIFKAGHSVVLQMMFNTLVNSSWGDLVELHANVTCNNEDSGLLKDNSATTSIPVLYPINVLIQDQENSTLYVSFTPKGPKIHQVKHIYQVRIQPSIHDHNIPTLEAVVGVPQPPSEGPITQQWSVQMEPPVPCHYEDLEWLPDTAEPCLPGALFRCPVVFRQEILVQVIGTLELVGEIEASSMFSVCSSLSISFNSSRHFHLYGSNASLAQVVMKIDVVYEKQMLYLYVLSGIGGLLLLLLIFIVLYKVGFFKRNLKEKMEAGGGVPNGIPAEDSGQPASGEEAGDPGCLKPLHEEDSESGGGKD

[2] = target: T2, rhesus-human chimeric CD11a (human (I-domain mutated to rhesus), UniProt P20701 26-1170); test: cell-based or functional assay
T2 sequence (looked up): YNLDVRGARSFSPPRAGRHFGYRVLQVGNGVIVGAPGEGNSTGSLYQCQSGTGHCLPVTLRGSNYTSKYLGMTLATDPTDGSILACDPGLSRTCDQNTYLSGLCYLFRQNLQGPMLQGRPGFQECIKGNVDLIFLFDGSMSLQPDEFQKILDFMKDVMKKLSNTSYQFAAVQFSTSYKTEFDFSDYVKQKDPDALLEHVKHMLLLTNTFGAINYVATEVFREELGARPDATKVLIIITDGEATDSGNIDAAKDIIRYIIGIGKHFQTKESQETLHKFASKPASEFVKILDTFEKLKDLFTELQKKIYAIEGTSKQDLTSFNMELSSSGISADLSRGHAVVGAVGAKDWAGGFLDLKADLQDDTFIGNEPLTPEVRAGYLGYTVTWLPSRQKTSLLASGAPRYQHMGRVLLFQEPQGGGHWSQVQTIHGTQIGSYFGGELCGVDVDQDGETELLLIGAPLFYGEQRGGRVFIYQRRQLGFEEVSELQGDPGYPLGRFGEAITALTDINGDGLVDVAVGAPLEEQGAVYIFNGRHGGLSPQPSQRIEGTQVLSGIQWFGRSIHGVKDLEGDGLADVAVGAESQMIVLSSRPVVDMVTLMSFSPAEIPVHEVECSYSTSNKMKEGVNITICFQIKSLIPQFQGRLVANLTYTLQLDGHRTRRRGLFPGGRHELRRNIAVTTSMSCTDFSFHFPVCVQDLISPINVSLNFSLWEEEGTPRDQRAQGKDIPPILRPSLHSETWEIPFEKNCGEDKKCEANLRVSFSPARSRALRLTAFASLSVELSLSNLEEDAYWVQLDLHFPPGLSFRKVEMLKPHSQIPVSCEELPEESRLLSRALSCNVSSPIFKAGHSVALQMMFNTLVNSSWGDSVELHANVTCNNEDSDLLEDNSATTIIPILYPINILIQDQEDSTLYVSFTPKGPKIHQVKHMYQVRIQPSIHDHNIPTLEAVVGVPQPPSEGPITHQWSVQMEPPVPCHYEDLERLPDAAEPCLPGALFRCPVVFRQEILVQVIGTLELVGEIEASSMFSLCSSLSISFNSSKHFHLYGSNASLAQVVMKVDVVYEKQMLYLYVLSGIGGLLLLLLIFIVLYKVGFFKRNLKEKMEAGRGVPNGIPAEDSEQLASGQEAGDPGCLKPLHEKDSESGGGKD

[3] = target: T1, rhesus CD11a; test: cell-based or functional assay; remark: listed apart in the source
[4] = target: T2, rhesus-human chimeric CD11a; test: cell-based or functional assay; remark: listed apart in the source
[5] = target: T1, rhesus CD11a; test: cell-based or functional assay; remark: listed apart in the source
[6] = target: T1, rhesus CD11a; test: saturation binding, Kd(app) compared
Procedure: Antibody affinities were determined by saturation binding using either peripheral blood mononuclear cells (murine MHM24 and HuIgG1) or rhesus leukocytes (MHM23, RhIgG1). In each assay, a radiolabeled antibody was serially diluted in HBSS-0.2% gelatin in quadruplicate. Nonspecific binding was determined by the addition of 500 nM final concentration of homologous unlabeled antibody in duplicate through the serial dilution. Human lymphocytes or rhesus leukocytes were added to the plates in a volume of 170 μl per well. Plates were incubated for 2 hr at room temperature on an orbital plate shaker. After incubation, cells were harvested using a SKATRON™ cell harvester (Lier, Norway) and washed 10 times with PBS containing 0.25% gelatin and 0.1% sodium azide. Samples were then counted for 1 min in an LBK Wallac GammaMaster gamma counter (Gaithersburg, Md.). Data was transformed from counts per minute to nanomolarity and four-parameter curve-fitting of saturation plots (bound versus total) was then performed to determine Kd (app) values.

[7] = target: T1, rhesus CD11a; test: binding to rhesus peripheral blood lymphocytes; end assigned by the printed EC50s
[8] = target: T1, rhesus CD11a; test: rhesus EC50 of the variant against human EC50 of HuIgG1; end assigned by the printed EC50s

- fold less efficacious than MHM23, RhLy:HuICAM adhesion [1]: 4 fold
- fold less efficacious than MHM23, RhLy:HuK adhesion [1]: 74 fold
- fold down from MHM23, Rh/HuCD11a:HuK adhesion [2]: 4 fold
- IC50 Value (nM), RhLy:HuICAM cell adhesion [3]: 5.3 nM
- IC50 Value (nM), RhLy:HuK cell adhesion [3]: 119 nM
- IC50 Value (nM), Rh/HuCD11a:HuK cell adhesion [4]: 4.9 nM
- IC50 Value (nM), rhesus mixed lymphocyte response [5]: 23.4 nM
- fold down from the Kd of HuIgG1 for human CD11a [6]: ~26 fold
- fold improvement over the EC50 of HuIgG1 for rhesus CD11a [7]: 240 to 415 fold
- fold weaker than the EC50 of HuIgG1 for human CD11a [8]: 3 to 5 fold
B1: rhesus-binding MHM24 RhIgG1 (antibody, V domains shown)
VH: EVQLVESGGGLVQPGGSLRLSCAASGYSFTGHWMNWVRQAPGKGLEWVGMIAPASSSTRYNQKFKDRFTISVDKSKNTLYLQMNSLRAEDTAVYYCARGIYFYGTTYFDYWGQGTLVTVSS
VL: DIQMTQSPSSLSASVGDRVTITCRASKTISKYLAWYQQKPGKAPKLLIYSGSTLQSGVPSRFSGSGSGTDFTLTISSLQPEDFATYYCQQHNEYPLTFGQGTKVEIKR
notes: HuIgG1 variant, human IgG1; also called H2C12; rhesusized antibody
